{
  "source": "patent US20100135951A1",
  "target": "TRAIL-R2 (human) (UniProt O14763)",
  "sequence (O14763 other isoform, or with tags, fused parts or gaps limits assumed)": "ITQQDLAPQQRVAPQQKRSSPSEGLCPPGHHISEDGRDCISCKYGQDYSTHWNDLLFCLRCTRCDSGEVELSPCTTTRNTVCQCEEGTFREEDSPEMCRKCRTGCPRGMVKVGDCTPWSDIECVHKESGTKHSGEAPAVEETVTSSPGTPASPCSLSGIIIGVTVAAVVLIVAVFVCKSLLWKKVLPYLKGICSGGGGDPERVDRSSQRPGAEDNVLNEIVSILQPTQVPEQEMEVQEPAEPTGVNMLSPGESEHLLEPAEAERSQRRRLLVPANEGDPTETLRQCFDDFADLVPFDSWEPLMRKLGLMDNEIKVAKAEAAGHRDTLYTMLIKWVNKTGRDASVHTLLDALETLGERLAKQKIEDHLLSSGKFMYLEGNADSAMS",
  "assay": "cell-based or functional assay",
  "data": [
    {"substance": "TRA-8 (antibody)", "values": [
      {"measurement": "cell death (ATPLITE cell viability assay)", "result": 100, "unit": "%"}
    ]}
  ]
}
